The target of assay [1] is soluble porcine αβ-tubulin (porcine) (UniProt P02550). Kind of assay: ITC. A general note: ITC needs no label: the signal is the heat of the interaction.
The target is the same in assay [2]. The experiment in a line: SEC + SEC-MALS.
Assay [3] addresses αβ-tubulin:DRP complex (1:1 molar ratio) (porcine) (UniProt P02550). Kind of assay: ITC.
Assay [4] shares this target. The experiment in a line: ITC. The source holds these as a separate data set.
Assay [5] deals with soluble porcine αβ-tubulin (porcine) (UniProt P02550). The experiment in a line: SEC + SEC-MALS. This is another data set of the same source. For orientation: Size exclusion chromatography separates by hydrodynamic size, large species first.

In general, Kd refers to the concentration at which binding is half-saturated. In general, stoichiometry N refers to the number of molecules, sites or subunits per partner or assembly.

Where two headings read alike, the source gives them in different places.

In assay [1], “DRP with the N-terminal ankyrin repeat removed (DRPΔN) (designed binder)” displayed a Kd of 461 nM.

Take “designer ankyrin repeat protein, Darpin-D1 (DRP) (designed binder)”: in assay [2], the stoichiometry N was 1. Besides, the Kd in assay [1] is 149 nM.

B1: isolated TOG1 (residues 1-270) (domain or fragment)
chain: MSQDQEEDYSKLPLESRIVHKVWKVRLSAYEECSKSFSLSADGSDNCFELWNNQSELWKSVLTDSNVAAQEAGTAAFVAYCRFSDPSHLLKAREISVLSISEKCLTSPRAGTRENALEALMLLVEADSAAPVIESIIPSLSARSPKVIASNVAAIASLVEQFGAKVIPSKMIIPHISNLFGHADKNVRKEASRLTVNIYRWTGDPLKDLLFKDLRPVQTKELESLFAELPTEPPKQTRFLKSQQPTSEPNVETQVEEQPALENEESEPEP
As to B1, the results for the Kd in assay [3] and in assay [4] were 70 nM and 1500 nM, respectively.

B2: isolated TOG2 (residues 320-510) (domain or fragment)
chain: KDNDFFNLVAILTKSVSKDANIMVVINAAHCIQAMAKGLRSNFSKYASTSINALLERSKEKKANVIESLSSAMDAVLATSSLDDLAELIASFAGNKNPQIKSSCFSLFSRSFSNMTSLPSKFTVDTCAKACVPGVSDTFEPVRSAAAEALGVLMKLVGERAINQYLSPLDDIRKSKIRSFYETATVKAKAP
As for B2, the figures for the Kd in assay [3] and in assay [4] were 173 nM and 3250 nM, respectively.

B3: monomeric S. pombe Alp14 TOG1-TOG2 array (residues 1-510) (domain or fragment)
chain: MSQDQEEDYSKLPLESRIVHKVWKVRLSAYEECSKSFSLSADGSDNCFELWNNQSELWKSVLTDSNVAAQEAGTAAFVAYCRFSDPSHLLKAREISVLSISEKCLTSPRAGTRENALEALMLLVEADSAAPVIESIIPSLSARSPKVIASNVAAIASLVEQFGAKVIPSKMIIPHISNLFGHADKNVRKEASRLTVNIYRWTGDPLKDLLFKDLRPVQTKELESLFAELPTEPPKQTRFLKSQQPTSEPNVETQVEEQPALENEESEPEPSDDQFDLVEEVDVLPNVDPNLETLMASSKWKDRKEALDKLLPVLSQPKIKDNDFFNLVAILTKSVSKDANIMVVINAAHCIQAMAKGLRSNFSKYASTSINALLERSKEKKANVIESLSSAMDAVLATSSLDDLAELIASFAGNKNPQIKSSCFSLFSRSFSNMTSLPSKFTVDTCAKACVPGVSDTFEPVRSAAAEALGVLMKLVGERAINQYLSPLDDIRKSKIRSFYETATVKAKAP
Turning to B3, the stoichiometry N in assay [2] and in assay [5] was 2 in each case.

B4: dimeric S. pombe Alp14 TOG array (residues 1-690) (domain or fragment)
chain: MSQDQEEDYSKLPLESRIVHKVWKVRLSAYEECSKSFSLSADGSDNCFELWNNQSELWKSVLTDSNVAAQEAGTAAFVAYCRFSDPSHLLKAREISVLSISEKCLTSPRAGTRENALEALMLLVEADSAAPVIESIIPSLSARSPKVIASNVAAIASLVEQFGAKVIPSKMIIPHISNLFGHADKNVRKEASRLTVNIYRWTGDPLKDLLFKDLRPVQTKELESLFAELPTEPPKQTRFLKSQQPTSEPNVETQVEEQPALENEESEPEPSDDQFDLVEEVDVLPNVDPNLETLMASSKWKDRKEALDKLLPVLSQPKIKDNDFFNLVAILTKSVSKDANIMVVINAAHCIQAMAKGLRSNFSKYASTSINALLERSKEKKANVIESLSSAMDAVLATSSLDDLAELIASFAGNKNPQIKSSCFSLFSRSFSNMTSLPSKFTVDTCAKACVPGVSDTFEPVRSAAAEALGVLMKLVGERAINQYLSPLDDIRKSKIRSFYETATVKAKAPTKKSKVKPSKQEESKVVVPSNAKAVKKSVVPSSPVVPSPRKATNKSLSMDVSKGNAFENGPLLPRPTTRPVSRGLSRGTSSSLQQKVKASTPLNSGALNETVQNLKNMELDDPAPQPAKHSRVDRYEHPKVLEDNDSTISSLESLKRENEELREQLKVEHEENISMQKQLSELKGELNTL
Consider B4, for which the stoichiometry N in assay [2] and in assay [5] was 4 throughout.

The record behind these values is doi:10.1101/340026.
